Measured values published in publication doi:10.1101/2025.11.17.688760.

Test system: P68135
Assay: TIRF microscopy of single actin filaments
Conditions: other: TIRF microscopy of single actin filaments (depolymerization)

Substance: alpha skeletal actin from rabbit muscle
- barbed end depolymerization rate (effective off-rate of ADP and ADP.Pi subunits): 3.4 ± 0.7 sub/s (mean ± SD)
